Laboratory results from patent publication US20070231324A1.

Molecular target: CD20 (human) (UniProt P11836)
Assay: FACS staining of Ramos, Daudi, Raji and BJAB B lymphoma cells

Sequence of UniProt P11836 (P11836 whole entry): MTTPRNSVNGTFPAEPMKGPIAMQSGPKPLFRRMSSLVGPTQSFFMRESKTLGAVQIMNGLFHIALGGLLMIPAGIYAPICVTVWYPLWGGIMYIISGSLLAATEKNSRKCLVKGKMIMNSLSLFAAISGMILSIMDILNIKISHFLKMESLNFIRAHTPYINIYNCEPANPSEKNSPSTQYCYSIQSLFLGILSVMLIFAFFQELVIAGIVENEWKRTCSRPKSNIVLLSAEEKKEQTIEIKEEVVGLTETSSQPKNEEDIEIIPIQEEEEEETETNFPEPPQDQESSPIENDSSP

- mean fluorescence shift: 5 to 15 units
Substance: RITUXAN® (rituximab), monoclonal antibody specific for CD20
